B1: IL-11: cytokine, a member of the IL-6 cytokine family, used to treat PMA-stimulated U937 and THP-1 macrophages (protein, UniProt P20809 22-199, looked up)
Interleukin-11: PGPPPGPPRVSPDPRAELDSTVLLTRSLLADTRQLAAQLRDKFPADGDHNLDSLPTLAMSAGALGALQLPGVLTRLRADLLSYLRHVQWLRRAGGSSLKTLEPELGTLQARLDRLLRRLQLLMSRLALPQPPPDPPAPPLAPPSSAWGGIRAAHAILGGLHLTLDWAVRGLLLLKTRL

Experiments:
Format in all cases: cell-based, human
[1] = system: patient-derived organoids (PDOs); assay: Patient-derived organoid CellTiter-Glo cell viability; details: Homo sapiens, 72 h; read-out: reduction in cell viability
Protocol: Patient-derived organoids (PDOs). Tumor tissues were minced on ice into 1 mm^3 small pieces. Tumor pieces (˜20 μl in volume) were resuspended in 200 μl Matrigel and seeded into 24 well plates for 15 min until gel solidify, followed by culture in advanced DMEM/F12 medium supplemented with B27 and N2 (Thermo Fisher Scientific), 0.01% BSA (Roche), 100 units/m penicillin-streptomycin (Thermo Fisher Scientific), and others (Table 4) for 4-8 weeks to grow organoids. […] The CellTiter-Glo Luminescent Cell Viability assay was used to determine drug responsiveness.

[2] = system: PMA-stimulated U937; assay: Immunofluorescence of IL-11 treated U937; details: 25 ng/ml, 72 hr
Protocol: Immunofluorescence. PMA-stimulated U937 were cultured and treated with 25 ng/ml IL-11 over 72 hr. Cells were then fixed with 4% paraformaldehyde for 15 minutes. After fixation, cells were incubated with fluorescence conjugated primary antibody (CD14, CD86 and CD163) for 1 hour. Slides were mounted with mounting medium with DAPI and the images were taken with fluorescence microscope.

[3] = system: PMA-stimulated U937 and THP-1; assay: Western blot of IL-11 treated macrophages; details: serial dosages, 72 hr
Protocol: Western blot analysis. PMA-stimulated U937 and THP-1 were cultured and treated with serial dosages of IL-11 over 72 hr. Cell lysates were harvested using RIPA buffer. The concentration of protein lysates was determined by Pierce™ BCA Protein Assay Kit (Thermo fisher). Forty micrograms of the total protein extracts were separated by NuPAGE™ 4-12% Bis-Tris Protein Gels (Thermo fisher) and transferred to PVDF membrane. The membranes were then blocked with 5% of Blotting-Grade Blocker (BioRad) in TBST and probed using primary antibodies against pSTAT3, STAT3 and GAPDH (Cell Signaling Technology; 2118S). Membranes were incubated in HRP-linked secondary antibodies following dilution with TBST (1:5000) at room temperature for one hour. Blots were developed using Western Lightning Plus-ECL Chemiluminescent Reagents (Perkin Elmer, Waltham, Mass.) and Syngene G:BOX Imaging System.

Molecule | cytotoxicity at 15 µM [1] | CD163 (immunofluorescence) [2] | pSTAT3 (western blot) [3]
N#CC[C@H](C1CCCC1)n1cc(-c2ncnc3[nH]ccc23)cn1 [ruxolitinib] | 10 to 20% |  | 
B1 |  | up-regulated | up-regulated

Source: patent US20220308062A1, “METHODS FOR PREDICTING DRUG RESPONSIVENESS IN SAMPLES FROM CANCER SUBJECTS” (Board of Regents, The University of Texas System, priority 2019, published 2022)
